The values that follow come from patent US20200283487A1 (UNIVERSITY OF SOUTHAMPTON, published 2020).

The target in this experiment is T1, BSA (UniProt P02769 25-607).
T1 construct: Negative control analyte on the Biacore chip; also called BSA negative control
Description: SPR (Biacore), rfhSP-A immobilised to ~700 RU, BSA as soluble analyte.

T1 sequence (P02769 25-607 limits assumed): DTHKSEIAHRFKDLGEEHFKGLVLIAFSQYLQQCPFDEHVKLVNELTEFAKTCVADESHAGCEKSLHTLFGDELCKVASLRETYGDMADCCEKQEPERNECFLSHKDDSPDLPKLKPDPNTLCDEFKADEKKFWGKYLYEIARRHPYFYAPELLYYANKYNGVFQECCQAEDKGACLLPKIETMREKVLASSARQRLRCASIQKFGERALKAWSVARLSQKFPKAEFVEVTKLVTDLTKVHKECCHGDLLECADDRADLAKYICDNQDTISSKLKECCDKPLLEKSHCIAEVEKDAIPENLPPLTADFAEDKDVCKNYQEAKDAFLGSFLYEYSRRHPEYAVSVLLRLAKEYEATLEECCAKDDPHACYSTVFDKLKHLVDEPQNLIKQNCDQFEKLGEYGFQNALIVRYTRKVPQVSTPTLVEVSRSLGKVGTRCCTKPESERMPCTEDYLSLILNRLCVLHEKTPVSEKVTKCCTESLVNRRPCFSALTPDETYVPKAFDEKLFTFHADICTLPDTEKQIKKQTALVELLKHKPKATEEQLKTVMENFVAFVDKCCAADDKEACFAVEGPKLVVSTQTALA

B1: rfhSP-A (recombinant fragment of human surfactant protein A; truncated SP-A polypeptide) (other)
chain: not shown
notes: C-type lectin (collectin) fragment; also called rhfSP-A; trimeric rfhSP-A
Turning to B1, the binding result is on record as “no binding”.
